We go through 1 molecule from patent US20190330334A1 (KAO, published 2019).

Ends that are not written are not given here.

The target of one test is T1, inactive GIP, GIP(3-42).
T1 peptide: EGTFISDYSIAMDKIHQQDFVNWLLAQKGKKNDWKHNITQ
Description: sandwich ELISA, anti-total GIP capture antibody, biotinylated m1 as detection antibody at 1 ug/mL. The procedure:
The reactivity between the monoclonal antibody prepared in Production Example 1 and active GIP was confirmed by ELISA. The amino group of the anti-active GIP monoclonal antibody was biotinylated with NH2 group biotinylation kit (manufactured by Dojindo Laboratories). ELISA was performed using the produced biotinylated anti-active GIP monoclonal antibody at 1 μg/mL instead of a detection antibody, GIP detection antibody (biotinylated anti-total GIP monoclonal antibody), included in Human (total) GIP ELISA kit (manufactured by EMD Millipore Corporation). A […] dilution series of GIP(1-42) or GIP(3-42) was prepared in 6 steps (8.2 to 2000 pg/mL) with a 2000 pg/mL solution as the highest concentration. By using an anti-total GIP monoclonal antibody (included in Human GIP (total) ELISA kit manufactured by EMD Millipore Corporation) as a capture antibody, the biotinylated anti-active GIP monoclonal antibody as a detection antibody, and a peroxidase-streptavidin conjugate for detection, sandwich ELISA was conducted to prepare a calibration curve with GIP concentration on the X-axis and 450 nm-590 nm absorbance on the Y-axis (FIG. 1).

Test [1] concerns the target T2, PEGylated N-terminus 13 amino acids of inactive GIP (GIP(3-15)), antigen (2) for measurement (also: PEGylated, site not given here).
T2 construct: Immobilized on the ELISA plate; also called PEGylated GIP(3-15)
T2 peptide: EGTFISDYSIAMD
Description: ELISA, immobilized antigen, hybridoma culture supernatant. How it is done: (§1) The reaction between the hybridoma culture supernatant and the antigen (1) and (2) for measurement was evaluated by ELISA using immobilized antigen (1) and (2), and hybridomas that are positive for the antigen (1) and negative for the antigen (2) were selected as anti-active GIP monoclonal antibody-producing hybridomas.
Background: ELISA stands for enzyme-linked immunosorbent assay.

Test [2] deals with T3, PEGylated N-terminus 15 amino acids of active GIP (GIP(1-15)), antigen (1) for measurement (also: PEGylated, site not given here).
T3 construct: also called PEGylated GIP(1-15)
T3 peptide: YAEGTFISDYSIAMD
The test is described as above. How it is done:
as §1

B1: anti-active GIP monoclonal antibody produced by hybridoma 9B9H5-B9 line (Production Example 1) (antibody, V domains shown)
VH: QVQLQQPGAELVKPGASVKLSCKASGYTFTSFWMHWVIQRPGQGLEWIGEMNPSDGRTHFNEKFKTKATLTIDTSSNTAYMELNSLTSEDSAVYYCARRMEDWGQGTLVTVSA
VL: DIKMTQSPSSMYASLGERVTITCKASQDINSYLGWFQQKPGKSPKTLIYGANRLVDGVPSRFSGSGSGQDYSLTISSLEYDDMGIYYCLQYDEFPLTFGAGTKLELKR
notes: also called anti-active GIP antibody; anti-GIP antibody
B1: the binding result was “no binding (tested: 2000 pg/mL)” with inactive GIP, GIP(3-42); “no binding” in test [1]; “binds” in test [2].
